Experimental data: patent US20170305994A1 (Novo Nordisk, published 2017)
Substitutions are numbered along the chain they refer to. Names may count otherwise. Like-named read-outs stand apart in the source and are kept apart here.

T1: human DR3 (full length, on cells) (human, UniProt Q93038 25-417)
T1 construct: also called hDR3; Death Receptor 3
T1 sequence: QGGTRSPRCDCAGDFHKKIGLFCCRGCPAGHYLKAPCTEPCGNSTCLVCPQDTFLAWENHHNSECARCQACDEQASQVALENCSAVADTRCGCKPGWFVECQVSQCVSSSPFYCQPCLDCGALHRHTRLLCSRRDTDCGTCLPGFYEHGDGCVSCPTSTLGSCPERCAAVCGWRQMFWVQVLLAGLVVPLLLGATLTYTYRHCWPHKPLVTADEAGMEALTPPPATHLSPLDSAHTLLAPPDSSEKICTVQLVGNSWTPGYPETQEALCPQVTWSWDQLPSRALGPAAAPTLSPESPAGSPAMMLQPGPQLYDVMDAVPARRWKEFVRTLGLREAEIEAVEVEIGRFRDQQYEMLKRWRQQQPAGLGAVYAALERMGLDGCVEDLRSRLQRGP

B1: 0073 (murine mAb purified from hybridoma 28F26A3) (antibody, V domains shown)
VH: EVKVVESGGGLVKPGGSLKLSCAASGFVFSSYDMSWVRQIPEKRLEWVAAISSGDYYTYYPDSVKGRFTISRDDARNTLYLQMSSLRSEDTALYYCARHRGGNYPQYAMDYWGQGTSVTVSS
VL: DILLTQSPASFAVSLGQRATISCRASKSVSTSGYNYIHWYQQKPGQPPKLLIYLTSNLESGVPARFSGSGSGTDFTLNIHPVEEEDAATYYCQHSRELPFTFGSGTKLEIKR
notes: murine IgG2a, kappa; also called 0085
B2: 0170 (humanized IgG1 Fab of 0072; HC T28A S49A Y91; LC Q3A T5A S60A M4) (Fab, V domains shown)
VH: EVQLVESGGGLVQPGGSLRLSCAASGFTFSNYDMSWVRQAAGKGLEWVSAFSSDGYTFYPGAVKGRFTISRENAKNSLYLQMNSLRAGDTAVYYCARHADYANYPVMDYWGQGTLVTVSS
VL: DIAMAQSPSSLSASVGDRVTITCRASKSVSTSGYSYMHWYQQKPGKAPKLLIYLASNLEAGVPSRFSGSGSGTDFTLTISSLQPEDFATYYCQHSRELPLTFGGGTKVEIK
B3: 0171 (humanized IgG1 Fab of 0072 without back mutations) (Fab, V domains shown)
VH: B2 VH with A41T, A62S
VL: B2 VL with A3Q, A5T, A60S
B4: 0173 (humanized IgG1 Fab of 0072; HC T28A S49A Y91S; LC Q3A T5A S60A M4L) (Fab, V domains shown)
VH: B2 VH with Y104S
VL: B2 VL with M4L
B5: 0087 (Fab from papain cleavage of mAb 0072) (Fab, V domains shown)
VH: EVKLVESGGGLVKPGGSLKLSCSASGFAFSNYDMSWVRQTPEKRLEWVAAFSSDGYTFYPDSLKGRFTISRDNARNTLYLQMSSLGSEDTALYCCARHADYANYPVMDYWGQGTSVTVSS
VL: DIVLAQSPASLLVSLGQRATISCRASKSVSTSGYSYMHWYQQKPGQPPKLLIYLASNLESGVPARFSGSGSGTDFTLNIHPVEEEDAATYYCQHSRELPLTFGAGTMLELKR
notes: murine IgG1 Fab by papain cleavage
B6: 0088 (Fab from papain cleavage of mAb 0073) (Fab, V domains shown)
VH: B1 VH
VL: B1 VL
notes: murine IgG2a Fab by papain cleavage
B7: 0163 (chimeric Fab of 45F187, human IgG4 constant domain, hinge Cys->Ser) (Fab, V domains shown)
VH: EVQLVESGGGLVQPGGSLRLSCATSGFTFTNYYMAWVRKPPGKTLEWLGFMRNIVNGYTTDYSGSVEGRFTISRDNSQSILYLQMNALRPEDSATYYCARDIGYRYDGGGYGLDYWGQGTSVTVSS
VL: DIQMTQSPASLSASVGETVTLTCRASGNIHNYLTWYQQKQGKSPQLLVYNVKTLADGVSSRFSGSGSGTQFSLKINSLQPEDFGSYYCQHFWTTPYTFGGGTKLEIRR
notes: IgG4-Ser, chimeric; also called 0150

How the values were obtained:
[1] = biological target: T1, human DR3 (full length, on cells); test: flow cytometry on CD3/CD28-stimulated human CD4+ T cells
Description: Human CD4-positive T cells were purified from Buffy coats using CD4 Rosettesep (Stem cell technologies) and Histopaque (Sigma). T cells were stimulated with CD3/CD28 Dynabeads (Invitrogen) at a 1:1 ratio for 4 days in T75 flask at 2 mio CD4 T cells/ml in RPMI supplemented with 10% fcs. Beads were removed using a magnet, and cells were washed twice before titrating in antibodies on 500.000 cells/staining. Binding saturation was measured after incubation with goat-anti-mouse phycoerythrin (Jackson ImmunoResearch) and cells were subsequently analysed by flow cytometry on a BD LSRII. All antibodies reached saturation at 3 μg/ml.

[2] = biological target: T1, human DR3 (full length, on cells); test: flow cytometry on IL-12/IL-18/TL1A activated CD4+ T cells, 1 µg/ml
Description: (§1) Buffy Coats were obtained from normal healthy volunteers from Copenhagen University Hospital. CD4+ T cells were isolated through magnetic bead separation. Cells were activated with 2 ng/ml IL-12, 50 ng/ml IL-18 and 100 ng/ml TL1A (Flag-HIS-TEV-TL1A-produced at Novo Nordisk A/S) and cultured for 5 days. On day 5 cells were stained with 10, 5, 1, 0.5, 0.1 or 0.0001 μg/ml of the anti-DR3 mAb clones 0072, 0073, or 0077, or with Fab fragment clones 0087, 0088 and 0091. A secondary PE conjugated goat-anti-mouse (H+L) was used for detection.
The greater observed MFI values of IgG treated compared with Fab treated cells was expected since the secondary (detecting) antibody (anti-IgG heavy and light chain) bound to both Fab and Fc parts of the full-length IgG antibody clones, but only to Fab parts of Fab clones (Table 9).

[3] = biological target: T1, human DR3 (full length, on cells); test: cell-based or functional assay
[4] = biological target: T1, human DR3 (full length, on cells); test: flow cytometry on IL-12/IL-18/TL1A activated CD4+ T cells, 1 µg/ml; remark: listed apart in the source
Description: as §1
as §1, with “Material and Methods: Buffy” for “Buffy”, “Copenhagen” for “Copenhagen University”, “0088 or” for “0088 and”, “detection. Samples were in duplicate. Staining intensity was evaluated by FACS.” for “detection.”

[5] = biological target: T1, human DR3 (full length, on cells); test: cell-based or functional assay; remark: listed apart in the source
[6] = biological target: T1, human DR3 (full length, on cells); test: cell-based or functional assay; remark: listed apart in the source
[7] = biological target: T1, human DR3 (full length, on cells); test: cell-based or functional assay; remark: listed apart in the source
[8] = biological target: T1, human DR3 (full length, on cells); test: cell-based or functional assay; remark: listed apart in the source
DR3 (ECD)-Fc = biological target: T2, DR3 (ECD)-Fc (human); test: HX-MS with hDR3 ECD-Fc
T2 construct: ECD of DR3, a linker with a TEV cleavage site and the Fc part of human IgG4; dimeric fraction used; also called DR3-Fc; hDR3-Fc
Description: The Leap robot was equipped with two temperature controlled stacks maintained at 20° C. for buffer storage and HX reactions and maintained at 2° C. for storage of protein and quench solution, respectively. The Waters HDX system furthermore contained a temperature controlled chamber holding the pre- and analytical columns, and the LC tubing and switching valves at 1° C. A separately temperature controlled chamber holds the pepsin column at 25° C. […] The resulting peptides were trapped and desalted on a VanGuard pre-column BEH C18 1.7 μm (2.1×5 mm (Waters Inc.)). Subsequently, the valves were switched to place the pre-column inline with the analytical column, UPLC-BEH C18 1.7 μm (1×100 mm (Waters Inc.)), and the peptides separated using a 9 min gradient of 10-40% B delivered at 200 μl/min from the nanoAQUITY UPLC system (Waters Inc.). The mobile phases consisted of A: 0.1% formic acid and B: 0.1% formic acid in CH₃CN. The ESI MS data, and the separate elevated energy (MS^E) experiments were acquired in positive ion mode using a Synapt G2 mass spectrometer (Waters Inc.).
All HX reactions were carried out at 20° C. and contained […] hDR3 in the absence or presence of […] Fab thus giving a 5 fold molar excess of Fab. […]

Row | Binder | MFI [2] [MFI] | MFI [4] [MFI] | IC100 of inhibition of IFN-γ secretion, TL1A-costimulated RA synovial fluid cells [5] [µg/mL] | IFN-γ, TL1A-costimulated RA SF cells, Fab 0.003 µg/mL [6] [pg/mL] | IFN-γ, TL1A-costimulated RA SF cells, Fab 0.01 µg/mL [6] [pg/mL] | IFN-γ, TL1A-costimulated RA SF cells, Fab 0.03 µg/mL [6] [pg/mL] | IFN-γ, TL1A-costimulated RA SF cells, Fab 0.1 µg/mL [6] [pg/mL] | IFN-γ, TL1A-costimulated RA SF cells, Fab 0.3 µg/mL [6] [pg/mL] | IFN-γ, TL1A-costimulated RA SF cells, Fab 1 µg/mL [6] [pg/mL] | IFN-γ, TL1A-costimulated lymphocytes, Fab 0.003 µg/mL [7] [ng/mL] | IFN-γ, TL1A-costimulated lymphocytes, Fab 0.01 µg/mL [7] [ng/mL] | IFN-γ, TL1A-costimulated lymphocytes, Fab 0.03 µg/mL [7] [ng/mL] | IFN-γ, TL1A-costimulated lymphocytes, Fab 0.1 µg/mL [7] [ng/mL] | IFN-γ, TL1A-costimulated lymphocytes, Fab 0.3 µg/mL [7] [ng/mL] | IFN-γ, TL1A-costimulated lymphocytes, Fab 1.0 µg/mL [7] [ng/mL] | other results
1 | B1 | 1300 | 1300 |  |  |  |  |  |  |  |  |  |  |  |  |  | Median Fluorescent Intensity [1]: 2840; Staining index (MFI Ab/MFI Isotype) [1]: 12.8; saturation concentration [1]: 3 µg/mL; fold response, DR3 reporter, 40 ng/ml TL1A + 0.1 microg/ml [3]: 24.2 fold; fold response, DR3 reporter, 40 ng/ml TL1A + 1 microg/ml [3]: 27.9 fold; fold response, DR3 reporter, 40 ng/ml TL1A + 10 microg/ml [3]: 25.5 fold; fold response, DR3 reporter, 40 ng/ml TL1A + 100 microg/ml [3]: 19 fold; fold response, DR3 reporter, no TL1A, 0.1 microg/ml [3]: 12.8 fold; fold response, DR3 reporter, no TL1A, 1 microg/ml [3]: 14.4 fold; fold response, DR3 reporter, no TL1A, 10 microg/ml [3]: 12.8 fold; fold response, DR3 reporter, no TL1A, 100 microg/ml [3]: 6.9 fold
2 | B2 |  |  | ~0.1 | 1790 | 1640 | 1360 | 1170 | 1300 | 1250 | 131 | 101 | 108 | 46 | 51 | 63 | 
3 | B3 |  |  | ~0.1 | 1870 | 1380 | 1220 | 1140 | 1160 | 1230 | 140 | 105 | 69 | 52 | 62 | 40 | 
4 | B4 |  |  | ~0.1 | 1550 | 1230 | 1130 | 1130 | 992 | 1060 | 160 | 163 | 95 | 69 | 62 | 48 | 
5 | B5 | 500 | 500 |  |  |  |  |  |  |  |  |  |  |  |  |  | fold response, DR3 reporter, 40 ng/ml TL1A + 0.1 microg/ml [8]: 5.8 fold; fold response, DR3 reporter, 40 ng/ml TL1A + 1 microg/ml [8]: 2.7 fold; fold response, DR3 reporter, 40 ng/ml TL1A + 10 microg/ml [8]: 2.1 fold; fold response, DR3 reporter, 40 ng/ml TL1A + 100 microg/ml [8]: 2.1 fold; fold response, DR3 reporter, no TL1A, 0.1 microg/ml [8]: 1 fold; fold response, DR3 reporter, no TL1A, 1 microg/ml [8]: 1 fold; fold response, DR3 reporter, no TL1A, 10 microg/ml [8]: 1 fold; fold response, DR3 reporter, no TL1A, 100 microg/ml [8]: 1 fold
6 | B6 | 500 | 500 |  |  |  |  |  |  |  |  |  |  |  |  |  | fold response, DR3 reporter, 40 ng/ml TL1A + 0.1 microg/ml [8]: 15.2 fold; fold response, DR3 reporter, 40 ng/ml TL1A + 1 microg/ml [8]: 6.3 fold; fold response, DR3 reporter, 40 ng/ml TL1A + 10 microg/ml [8]: 2.9 fold; fold response, DR3 reporter, 40 ng/ml TL1A + 100 microg/ml [8]: 2.8 fold; fold response, DR3 reporter, no TL1A, 0.1 microg/ml [8]: 1.1 fold; fold response, DR3 reporter, no TL1A, 1 microg/ml [8]: 1.1 fold; fold response, DR3 reporter, no TL1A, 10 microg/ml [8]: 1.1 fold; fold response, DR3 reporter, no TL1A, 100 microg/ml [8]: 1 fold
7 | B7 |  |  |  |  |  |  |  |  |  |  |  |  |  |  |  | binding result (DR3 (ECD)-Fc): binds
